The values below come from US20260274985A1 (MYTHIC THERAPEUTICS, published 2026).

To fix the notation:
T1: Human TROP2 Protein, His Tag (Acro Biosystems) (human, UniProt P09758 27-274)
T1 construct: Bought protein; not shown: His tag
T1 sequence (looked up): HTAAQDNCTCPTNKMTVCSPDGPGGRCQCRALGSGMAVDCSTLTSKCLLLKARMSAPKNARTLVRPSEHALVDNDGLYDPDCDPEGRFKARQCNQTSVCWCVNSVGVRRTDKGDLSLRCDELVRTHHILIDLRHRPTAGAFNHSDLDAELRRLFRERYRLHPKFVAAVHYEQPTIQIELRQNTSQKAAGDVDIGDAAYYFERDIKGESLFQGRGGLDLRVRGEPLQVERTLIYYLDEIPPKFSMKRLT

T2: Human TROP2 Protein, His Tag (Acro Biosystems) (human, UniProt P09758 27-274)
T2 construct: Bought protein; also called TACSTD2; not shown: His tag
T2 sequence: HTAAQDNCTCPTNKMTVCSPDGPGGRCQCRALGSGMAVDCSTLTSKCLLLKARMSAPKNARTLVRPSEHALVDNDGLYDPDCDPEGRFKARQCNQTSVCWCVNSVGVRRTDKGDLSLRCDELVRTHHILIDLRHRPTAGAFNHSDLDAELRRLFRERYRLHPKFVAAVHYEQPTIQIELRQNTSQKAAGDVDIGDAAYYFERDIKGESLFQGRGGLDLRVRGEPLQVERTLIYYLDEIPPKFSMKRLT

B1: MYT11611 (antibody, V domains shown)
VH: QVQLQQSGSELKKPGASVKVSCKASGYTFTNYGMNWVKQAPGQGLKWMGWINTYTGEPTYTDDFKGRFAFSLDTSVSTAYLQISSLKADDTAVYFCARGGFGSSYWYFDVWGQGSLVTVSS
VL: DIQLTQSPSSLSASVGDRVSITCKASHDVSIAVAWYQQKPGKAPKLLIYSASYRYTGVPDRFSGSGSGTDFTLTISSLQPEDFAVYYCQQHYITPLTFGAGTKVEIK
notes: Sacituzumab variant, His at LCV position 27 (L1 04)
B2: MYT11617 (antibody, V domains shown)
VH: QVQLQQSGSELKKPGASVKVSCKASGYTFTNYGMNWVKQAPGQGLKWMGWINTYTGEPTYTDDFKGRFAFSLDTSVSTAYLQISSLKADDTAVYFCARGGFGSSYWYFDVWGQGSLVTVSS
VL: DIQLTQSPSSLSASVGDRVSITCKASQDVSIAHAWYQQKPGKAPKLLIYSASYRYTGVPDRFSGSGSGTDFTLTISSLQPEDFAVYYCQQHYITPLTFGAGTKVEIK
notes: Sacituzumab variant, His at LCV position 33 (L1 10)
B3: MYT11621 (antibody, V domains shown)
VH: QVQLQQSGSELKKPGASVKVSCKASGYTFTNYGMNWVKQAPGQGLKWMGWINTYTGEPTYTDDFKGRFAFSLDTSVSTAYLQISSLKADDTAVYFCARGGFGSSYWYFDVWGQGSLVTVSS
VL: DIQLTQSPSSLSASVGDRVSITCKASQDVSIAVAWYQQKPGKAPKLLIYSAHYRYTGVPDRFSGSGSGTDFTLTISSLQPEDFAVYYCQQHYITPLTFGAGTKVEIK
notes: Sacituzumab variant, His at LCV position 52 (L2 03)
B4: MYT11612 (antibody, V domains shown)
VH: QVQLQQSGSELKKPGASVKVSCKASGYTFTNYGMNWVKQAPGQGLKWMGWINTYTGEPTYTDDFKGRFAFSLDTSVSTAYLQISSLKADDTAVYFCARGGFGSSYWYFDVWGQGSLVTVSS
VL: DIQLTQSPSSLSASVGDRVSITCKASQHVSIAVAWYQQKPGKAPKLLIYSASYRYTGVPDRFSGSGSGTDFTLTISSLQPEDFAVYYCQQHYITPLTFGAGTKVEIK
notes: Sacituzumab variant, His at LCV position 28 (L1 05)
B5: MYT11613 (antibody, V domains shown)
VH: QVQLQQSGSELKKPGASVKVSCKASGYTFTNYGMNWVKQAPGQGLKWMGWINTYTGEPTYTDDFKGRFAFSLDTSVSTAYLQISSLKADDTAVYFCARGGFGSSYWYFDVWGQGSLVTVSS
VL: DIQLTQSPSSLSASVGDRVSITCKASQDHSIAVAWYQQKPGKAPKLLIYSASYRYTGVPDRFSGSGSGTDFTLTISSLQPEDFAVYYCQQHYITPLTFGAGTKVEIK
notes: Sacituzumab variant, His at LCV position 29 (L1 06)
B6: MYT11615 (antibody, V domains shown)
VH: QVQLQQSGSELKKPGASVKVSCKASGYTFTNYGMNWVKQAPGQGLKWMGWINTYTGEPTYTDDFKGRFAFSLDTSVSTAYLQISSLKADDTAVYFCARGGFGSSYWYFDVWGQGSLVTVSS
VL: DIQLTQSPSSLSASVGDRVSITCKASQDVSHAVAWYQQKPGKAPKLLIYSASYRYTGVPDRFSGSGSGTDFTLTISSLQPEDFAVYYCQQHYITPLTFGAGTKVEIK
notes: Sacituzumab variant, His at LCV position 31 (L1 08)
B7: MYT11620 (antibody, V domains shown)
VH: QVQLQQSGSELKKPGASVKVSCKASGYTFTNYGMNWVKQAPGQGLKWMGWINTYTGEPTYTDDFKGRFAFSLDTSVSTAYLQISSLKADDTAVYFCARGGFGSSYWYFDVWGQGSLVTVSS
VL: DIQLTQSPSSLSASVGDRVSITCKASQDVSIAVAWYQQKPGKAPKLLIYSHSYRYTGVPDRFSGSGSGTDFTLTISSLQPEDFAVYYCQQHYITPLTFGAGTKVEIK
notes: Sacituzumab variant, His at LCV position 51 (L2 02)
B8: MYT12410 (hu7E6SVG variant, HCV substitutions at 33, 56) (antibody, V domains shown)
VH: QVQLQESGPGLVKPSETLSLTCTVSGGSISSYHVHWIRQPPGKGLEWIGVIWTSGHTDYNSALMGRVTISVDTSKNQFSLKLSSVTAADTAVYYCARDGDYDRYTMDYWGQGTLVTVSS
VL: DIVMTQSPDSLAVSLGERATINCRASKSVSTSGYSYMHWYQQKPGQPPKLLIYLASNLESGVPDRFSGSGSGTDFTLTISSLQAEDVAVYYCQHSRELPYTFGQGTKLEIK
B9: MYT12415 (hu7E6SVG variant, HCV substitutions at 34, 56) (antibody, V domains shown)
VH: QVQLQESGPGLVKPSETLSLTCTVSGGSISSYGHHWIRQPPGKGLEWIGVIWTSGHTDYNSALMGRVTISVDTSKNQFSLKLSSVTAADTAVYYCARDGDYDRYTMDYWGQGTLVTVSS
VL: DIVMTQSPDSLAVSLGERATINCRASKSVSTSGYSYMHWYQQKPGQPPKLLIYLASNLESGVPDRFSGSGSGTDFTLTISSLQAEDVAVYYCQHSRELPYTFGQGTKLEIK
B10: MYT12422 (hu7E6SVG variant, HCV substitutions at 51, 106) (antibody, V domains shown)
VH: QVQLQESGPGLVKPSETLSLTCTVSGGSISSYGVHWIRQPPGKGLEWIGVHWTSGVTDYNSALMGRVTISVDTSKNQFSLKLSSVTAADTAVYYCARDGDYDRYTHDYWGQGTLVTVSS
VL: DIVMTQSPDSLAVSLGERATINCRASKSVSTSGYSYMHWYQQKPGQPPKLLIYLASNLESGVPDRFSGSGSGTDFTLTISSLQAEDVAVYYCQHSRELPYTFGQGTKLEIK
B11: MYT12419 (hu7E6SVG variant, HCV substitutions at 51, 56) (antibody, V domains shown)
VH: QVQLQESGPGLVKPSETLSLTCTVSGGSISSYGVHWIRQPPGKGLEWIGVHWTSGHTDYNSALMGRVTISVDTSKNQFSLKLSSVTAADTAVYYCARDGDYDRYTMDYWGQGTLVTVSS
VL: DIVMTQSPDSLAVSLGERATINCRASKSVSTSGYSYMHWYQQKPGQPPKLLIYLASNLESGVPDRFSGSGSGTDFTLTISSLQAEDVAVYYCQHSRELPYTFGQGTKLEIK
B12: MYT12414 (hu7E6SVG variant, HCV substitutions at 34, 51) (antibody, V domains shown)
VH: QVQLQESGPGLVKPSETLSLTCTVSGGSISSYGHHWIRQPPGKGLEWIGVHWTSGVTDYNSALMGRVTISVDTSKNQFSLKLSSVTAADTAVYYCARDGDYDRYTMDYWGQGTLVTVSS
VL: DIVMTQSPDSLAVSLGERATINCRASKSVSTSGYSYMHWYQQKPGQPPKLLIYLASNLESGVPDRFSGSGSGTDFTLTISSLQAEDVAVYYCQHSRELPYTFGQGTKLEIK
B13: MYT12423 (hu7E6SVG variant, HCV substitutions at 56, 102) (antibody, V domains shown)
VH: QVQLQESGPGLVKPSETLSLTCTVSGGSISSYGVHWIRQPPGKGLEWIGVIWTSGHTDYNSALMGRVTISVDTSKNQFSLKLSSVTAADTAVYYCARDGDYHRYTMDYWGQGTLVTVSS
VL: DIVMTQSPDSLAVSLGERATINCRASKSVSTSGYSYMHWYQQKPGQPPKLLIYLASNLESGVPDRFSGSGSGTDFTLTISSLQAEDVAVYYCQHSRELPYTFGQGTKLEIK
B14: MYT12418 (hu7E6SVG variant, HCV substitutions at 34, 106) (antibody, V domains shown)
VH: QVQLQESGPGLVKPSETLSLTCTVSGGSISSYGHHWIRQPPGKGLEWIGVIWTSGVTDYNSALMGRVTISVDTSKNQFSLKLSSVTAADTAVYYCARDGDYDRYTHDYWGQGTLVTVSS
VL: DIVMTQSPDSLAVSLGERATINCRASKSVSTSGYSYMHWYQQKPGQPPKLLIYLASNLESGVPDRFSGSGSGTDFTLTISSLQAEDVAVYYCQHSRELPYTFGQGTKLEIK
B15: MYT12411 (hu7E6SVG variant, HCV substitutions at 33, 102) (antibody, V domains shown)
VH: QVQLQESGPGLVKPSETLSLTCTVSGGSISSYHVHWIRQPPGKGLEWIGVIWTSGVTDYNSALMGRVTISVDTSKNQFSLKLSSVTAADTAVYYCARDGDYHRYTMDYWGQGTLVTVSS
VL: DIVMTQSPDSLAVSLGERATINCRASKSVSTSGYSYMHWYQQKPGQPPKLLIYLASNLESGVPDRFSGSGSGTDFTLTISSLQAEDVAVYYCQHSRELPYTFGQGTKLEIK

In the first assay the target is T1, Human TROP2 Protein, His Tag (Acro …). Description: BLI (Octet). Here is the method:
After allowing for four days of protein expression, cell culture supernatants were collected, quantified by SDS-PAGE analysis (DNS), and the pH dependence of the variant was evaluated using biolayer interferometry (BLI) on an Octet RED 96e instrument. Briefly, cell culture supernatants were diluted based on qualitative expression level of the variant determined by visual examination of SDS-PAGE gels, 5 μL of cell culture supernatant was diluted into 195 μL of 1×PBST, pH 7.4 for high expressors, 25 μL of cell culture supernatant was diluted into 175 μL of 1×PBST, pH 7.4 for medium expressors and 100 μL of cell culture supernatant was diluted into 100 μL of 1×PBST, pH 7.4 for low expressors for loading onto the sensor tips. The resulting diluted supernatants were then captured on an anti-human Fc sensor (Forte Bio). A baseline was established using 1×PBST (50 mM Potassium Phosphate Buffer+150 mM NaCl+0.05% Tween 20) pH 7.4, and the sensor was associated with 50 nM of TROP2 (Human TROP2 Protein, His Tag, Acro Biosystems) in 1×PBST pH 7.4 for 120 sec to generate an association curve. In the dissociation phase, the antibody-antigen complex on the sensor was exposed to 1×PBST pH 7.4 or pH 5.4, for 300 sec. Association and dissociation phase curves were examined for the starting ABPC antibody (with no substitutions) and each corresponding antibody variant at pH 5.4 and pH 7.4 to inform on two criteria: a) enhanced dissociation (i.e., higher koff values) at pH 5.4 due to histidine or alanine substitution compared to the starting ABPC, (with no substitutions), and b) reduced dissociation at pH 7.4 (i.e., lower koff values) compared to pH 5.4 in the antibody variant itself and with the starting ABPC (with no substitutions). […] It was also noted that while some mutations obliterated TROP2 binding, others were tolerated with little or n change in TROP2 binding kinetics.
In general terms: In BLI a coated tip is dipped into the sample, and binding shifts an interference pattern.
Regarding B1, the binding result was “binds”.

With B2, the binding result is “binds”. The same measure, in the same setting: the entry for B3 is “binds”; for B4 it is “binds”; for B5 it is “binds”. The same measure, in the same setting: the entry for B6 is “binds”; for B7 it is “binds”.

Another assay addresses T2, Human TROP2 Protein, His Tag (Acro …). Description: BLI (Octet).
Take B8: the binding result is given as “binds”. The same measure, in the same setting: the entry for B9 is “binds”; for B10 it is “binds”; for B11 it is “binds”. Still for that read-out and setting: in the case of B12 it was “binds”; in that of B13, “binds”; in that of B14, “binds”. For the molecule B15, the binding result is recorded as “binds”.
